This assay deals with T1, TIM-3/Galectin-9 interaction (Homo sapiens, UniProt Q8TDQ0).
T1 construct: purchased R&D Systems
Nature of the assay: Plate-based (MesoScale) competition assay of the TIM-3/Galectin-9 interaction. The format is binding. Particulars: serial dilutions of antibody; labeled Galectin-9 100 nM. How it is done:
FIG. 1 is a graph depicting the impact of MBG453 on the interaction between TIM3 and galectin-9. Competition was assessed as a measure of the ability of the antibody to block Gal9-SULFOTag signal to TIM-3 receptor, which is shown on the Y-axis. Concentration of the antibody is shown on the X-axis.
TIM-3 fusion protein (R&D Systems) was coated on a standard MesoScale 96 well plate (Meso Scale Discovery) at 2 μg/ml in PBS (Phosphate Buffered Saline) and incubated for six hours at room temperature. The plate was washed three times with PBST (PBS buffer containing 0.05% Tween-20) and blocked with PBS containing 5% Probumin (Millipore) overnight at 4° C. After incubation, the plate was washed three times with PBST and unlabeled antibody (F38-2E2 (BioLegend); MBG453; MBG453 F(ab′)2; MBG453 F(ab); or control recombinant human Galectin-9 protein) diluted in Assay Diluent (2% Probumin, 0.1% Tween-20, 0.1% Triton X-100 (Sigma) with 10% StabilGuard (SurModics)), was added in serial dilutions to the plate and incubated for one hour on an orbital shaker at room temperature. […] The plate was again washed three times with PBST, and Read Buffer T (1×) was added to the plate. The plate was read on MA600 Imager, and competition was assessed as a measure of the ability of the antibody to block Gal9-SULFOTag signal to TIM-3 receptor.

B1: control Galectin-9 protein: unlabeled control recombinant human Galectin-9 protein (protein)
chain: AFSGSQAPYLSPAVPFSGTIQGGLQDGLQITVNGTVLSSSGTRFAVNFQTGFSGNDIAFHFNPRFEDGGYVVCNTRQNGSWGPEERKTHMPFQKGMPFDLCFLVQSSDFKVMVNGILFVQYFHRVPFHRVDTISVNGSVQLSYISFQPPGVWPANPAPITQTVIHTVQSAPGQMFSTPAIPPMMYPHPAYPMPFITTILGGLYPSKSILLSGTVLPSAQRFHINLCSGNHIAFHLNPRFDENAVVRNTQIDNSWGSEERSLPRKMPFVRGQSFSVWILCEAHCLKVAVDGQHLFEYYHRLRNLPTINRLEVGGDIQLTHVQT
Turning to B1, the “block of the interaction between TIM-3 and Galectin-9 (Gal9-SULFOTag signal to TIM-3)” value is reported as “did not”.

The values are drawn from patent US20230057071A1 (NOVARTIS AG, priority 2019, published 2023).
